Experimental data: patent US20200199241A1 (Chugai, published 2020)

Each binder was assayed against T1, soluble human FcRn complexed with β2-microglobulin (human, UniProt P61769 21-119, limits assumed) (assay: Biacore SPR, pH 7.0;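 also: test antibodies captured on a Protein L chip with human FcRn flowed over as analyte, KD obtained as the ratio of dissociation to association rate constants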).
T1 construct: also called hFcRn

Kd | Binder
190 nM | IgG1-F1363 (antibody, EU numbering; copies: 2 + 2) heavy: QVQLQESGPGLVKPSETLSLTCAVSGHSISHDHAWSWVRQPPGEGLEWIGFISYSGITNYNPSLQGRVTISRDNSKNTLYLQMNSLRAEDTAVYYCARSLARTTAMDYWGEGTLVTVSSASTKGPSVFPLAPSSKSTSGGTAALGCLVKDYFPEPVTVSWNSGALTSGVHTFPAVLQSSGLYSLSSVVTVPSSSLGTQTYICNVNHKPSNTKVDKKVEPKSCDKTHTCPPCPAPELRGGPKVFLFPPKPKDTLYITRTPEVTCVVVDVSHEDPEVKFNWYVDGVEVHNAKTKPREEQYNSTYRVVSVLTVLHQDWLNGKEYKCKVSNKALPAPIEKTISKAKGQPREPQVYTLPPSRDELTKNQVSLTCLVKGFYPSDIAVEWESNGQPENNYKTTPPVLDSDGSFFLYSKLTVDKSRWQQGNVFSCSVMHEALDYHFTRKELSLSP light: not shown
90.9 nM | IgG1-F1376 (antibody, EU numbering; copies: 2 + 2) heavy: QVQLQESGPGLVKPSETLSLTCAVSGHSISHDHAWSWVRQPPGEGLEWIGFISYSGITNYNPSLQGRVTISRDNSKNTLYLQMNSLRAEDTAVYYCARSLARTTAMDYWGEGTLVTVSSASTKGPSVFPLAPSSKSTSGGTAALGCLVKDYFPEPVTVSWNSGALTSGVHTFPAVLQSSGLYSLSSVVTVPSSSLGTQTYICNVNHKPSNTKVDKKVEPKSCDKTHTCPPCPAPELRGGPKVFLFPPKPKDTLYITREPEVTCVVVDVSHEDPEVKFNWYVDGVEVHNAKTKPREEQYNSTYRVVSVLTVLHQDWLNGKEYKCKVSNKALPAPIEKTISKAKGQPREPQVYTLPPSRDELTKNQVSLTCLVKGFYPSDIAVEWESNGQPENNYKTTPPVLDSDGSFFLYSKLTVDKSRWQQGNVFSCSVMHEALHYHVTQKSLSLSP light: not shown
179 nM | IgG1-F1367 (antibody, EU numbering; copies: 2 + 2) heavy: QVQLQESGPGLVKPSETLSLTCAVSGHSISHDHAWSWVRQPPGEGLEWIGFISYSGITNYNPSLQGRVTISRDNSKNTLYLQMNSLRAEDTAVYYCARSLARTTAMDYWGEGTLVTVSSASTKGPSVFPLAPSSKSTSGGTAALGCLVKDYFPEPVTVSWNSGALTSGVHTFPAVLQSSGLYSLSSVVTVPSSSLGTQTYICNVNHKPSNTKVDKKVEPKSCDKTHTCPPCPAPELRGGPKVFLFPPKPKDTLYITREPEVTCVVVDVSHEDPEVKFNWYVDGVEVHNAKTKPREEQYNSTYRVVSVLTVLHQDWLNGKEYKCKVSNKALPAPIEKTISKAKGQPREPQVYTLPPSRDELTKNQVSLTCLVKGFYPSDIAVEWESNGQPENNYKTTPPVLDSDGSFFLYSKLTVDKSRWQQGNVFSCSVMHEALHYHTTRKELSLSP light: not shown
91.4 nM | IgG1-F1370 (antibody, EU numbering; copies: 2 + 2) heavy: QVQLQESGPGLVKPSETLSLTCAVSGHSISHDHAWSWVRQPPGEGLEWIGFISYSGITNYNPSLQGRVTISRDNSKNTLYLQMNSLRAEDTAVYYCARSLARTTAMDYWGEGTLVTVSSASTKGPSVFPLAPSSKSTSGGTAALGCLVKDYFPEPVTVSWNSGALTSGVHTFPAVLQSSGLYSLSSVVTVPSSSLGTQTYICNVNHKPSNTKVDKKVEPKSCDKTHTCPPCPAPELRGGPKVFLFPPKPKDTLYITREPEVTCVVVDVSHEDPEVKFNWYVDGVEVHNAKTKPREEQYNSTYRVVSVLTVLHQDWLNGKEYKCKVSNKALPAPIEKTISKAKGQPREPQVYTLPPSRDELTKNQVSLTCLVKGFYPSDIAVEWESNGQPENNYKTTPPVLDSDGSFFLYSKLTVDKSRWQQGNVFSCSVMHEALDYHVTKKELSLSP light: not shown
120 nM | IgG1-F1374 (antibody, EU numbering; copies: 2 + 2) heavy: QVQLQESGPGLVKPSETLSLTCAVSGHSISHDHAWSWVRQPPGEGLEWIGFISYSGITNYNPSLQGRVTISRDNSKNTLYLQMNSLRAEDTAVYYCARSLARTTAMDYWGEGTLVTVSSASTKGPSVFPLAPSSKSTSGGTAALGCLVKDYFPEPVTVSWNSGALTSGVHTFPAVLQSSGLYSLSSVVTVPSSSLGTQTYICNVNHKPSNTKVDKKVEPKSCDKTHTCPPCPAPELRGGPKVFLFPPKPKDTLYITREPEVTCVVVDVSHEDPEVKFNWYVDGVEVHNAKTKPREEQYNSTYRVVSVLTVLHQDWLNGKEYKCKVSNKALPAPIEKTISKAKGQPREPQVYTLPPSRDELTKNQVSLTCLVKGFYPSDIAVEWESNGQPENNYKTTPPVLDSDGSFFLYSKLTVDKSRWQQGNVFSCSVMHEALDYHFTRKELSLSP light: not shown
109 nM | IgG1-F1371 (antibody, EU numbering; copies: 2 + 2) heavy: QVQLQESGPGLVKPSETLSLTCAVSGHSISHDHAWSWVRQPPGEGLEWIGFISYSGITNYNPSLQGRVTISRDNSKNTLYLQMNSLRAEDTAVYYCARSLARTTAMDYWGEGTLVTVSSASTKGPSVFPLAPSSKSTSGGTAALGCLVKDYFPEPVTVSWNSGALTSGVHTFPAVLQSSGLYSLSSVVTVPSSSLGTQTYICNVNHKPSNTKVDKKVEPKSCDKTHTCPPCPAPELRGGPKVFLFPPKPKDTLYITREPEVTCVVVDVSHEDPEVKFNWYVDGVEVHNAKTKPREEQYNSTYRVVSVLTVLHQDWLNGKEYKCKVSNKALPAPIEKTISKAKGQPREPQVYTLPPSRDELTKNQVSLTCLVKGFYPSDIAVEWESNGQPENNYKTTPPVLDSDGSFFLYSKLTVDKSRWQQGNVFSCSVMHEALDYHVTRKELSLSP light: not shown
86.7 nM | IgG1-F1373 (antibody, EU numbering; copies: 2 + 2) heavy: QVQLQESGPGLVKPSETLSLTCAVSGHSISHDHAWSWVRQPPGEGLEWIGFISYSGITNYNPSLQGRVTISRDNSKNTLYLQMNSLRAEDTAVYYCARSLARTTAMDYWGEGTLVTVSSASTKGPSVFPLAPSSKSTSGGTAALGCLVKDYFPEPVTVSWNSGALTSGVHTFPAVLQSSGLYSLSSVVTVPSSSLGTQTYICNVNHKPSNTKVDKKVEPKSCDKTHTCPPCPAPELRGGPKVFLFPPKPKDTLYITREPEVTCVVVDVSHEDPEVKFNWYVDGVEVHNAKTKPREEQYNSTYRVVSVLTVLHQDWLNGKEYKCKVSNKALPAPIEKTISKAKGQPREPQVYTLPPSRDELTKNQVSLTCLVKGFYPSDIAVEWESNGQPENNYKTTPPVLDSDGSFFLYSKLTVDKSRWQQGNVFSCSVMHEALDYHFTKKELSLSP light: not shown
103 nM | IgG1-F1375 (antibody, EU numbering; copies: 2 + 2) heavy: QVQLQESGPGLVKPSETLSLTCAVSGHSISHDHAWSWVRQPPGEGLEWIGFISYSGITNYNPSLQGRVTISRDNSKNTLYLQMNSLRAEDTAVYYCARSLARTTAMDYWGEGTLVTVSSASTKGPSVFPLAPSSKSTSGGTAALGCLVKDYFPEPVTVSWNSGALTSGVHTFPAVLQSSGLYSLSSVVTVPSSSLGTQTYICNVNHKPSNTKVDKKVEPKSCDKTHTCPPCPAPELRGGPKVFLFPPKPKDTLYITRTPEVTCVVVDVSHEDPEVKFNWYVDGVEVHNAKTKPREEQYNSTYRVVSVLTVLHQDWLNGKEYKCKVSNKALPAPIEKTISKAKGQPREPQVYTLPPSRDELTKNQVSLTCLVKGFYPSDIAVEWESNGQPENNYKTTPPVLDSDGSFFLYSKLTVDKSRWQQGNVFSCSVMHEALHYHVTQKSLSLSP light: not shown
117 nM | IgG1-F1366 (antibody, EU numbering; copies: 2 + 2) heavy: QVQLQESGPGLVKPSETLSLTCAVSGHSISHDHAWSWVRQPPGEGLEWIGFISYSGITNYNPSLQGRVTISRDNSKNTLYLQMNSLRAEDTAVYYCARSLARTTAMDYWGEGTLVTVSSASTKGPSVFPLAPSSKSTSGGTAALGCLVKDYFPEPVTVSWNSGALTSGVHTFPAVLQSSGLYSLSSVVTVPSSSLGTQTYICNVNHKPSNTKVDKKVEPKSCDKTHTCPPCPAPELRGGPKVFLFPPKPKDTLYISREPEVTCVVVDVSHEDPEVKFNWYVDGVEVHNAKTKPREEQYNSTYRVVSVLTVLHQDWLNGKEYKCKVSNKALPAPIEKTISKAKGQPREPQVYTLPPSRDELTKNQVSLTCLVKGFYPSDIAVEWESNGQPENNYKTTPPVLDSDGSFFLYSKLTVDKSRWQQGNVFSCSVMHEALDYHFTKKELSLSP light: not shown
228 nM | IgG1-F1372 (antibody, EU numbering; copies: 2 + 2) heavy: QVQLQESGPGLVKPSETLSLTCAVSGHSISHDHAWSWVRQPPGEGLEWIGFISYSGITNYNPSLQGRVTISRDNSKNTLYLQMNSLRAEDTAVYYCARSLARTTAMDYWGEGTLVTVSSASTKGPSVFPLAPSSKSTSGGTAALGCLVKDYFPEPVTVSWNSGALTSGVHTFPAVLQSSGLYSLSSVVTVPSSSLGTQTYICNVNHKPSNTKVDKKVEPKSCDKTHTCPPCPAPELRGGPKVFLFPPKPKDTLYITREPEVTCVVVDVSHEDPEVKFNWYVDGVEVHNAKTKPREEQYNSTYRVVSVLTVLHQDWLNGKEYKCKVSNKALPAPIEKTISKAKGQPREPQVYTLPPSRDELTKNQVSLTCLVKGFYPSDIAVEWESNGQPENNYKTTPPVLDSDGSFFLYSKLTVDKSRWQQGNVFSCSVMHEALDYHTTRKELSLSP light: not shown
314 nM | IgG1-F1365 (antibody, EU numbering; copies: 2 + 2) heavy: QVQLQESGPGLVKPSETLSLTCAVSGHSISHDHAWSWVRQPPGEGLEWIGFISYSGITNYNPSLQGRVTISRDNSKNTLYLQMNSLRAEDTAVYYCARSLARTTAMDYWGEGTLVTVSSASTKGPSVFPLAPSSKSTSGGTAALGCLVKDYFPEPVTVSWNSGALTSGVHTFPAVLQSSGLYSLSSVVTVPSSSLGTQTYICNVNHKPSNTKVDKKVEPKSCDKTHTCPPCPAPELRGGPKVFLFPPKPKDTLYISREPEVTCVVVDVSHEDPEVKFNWYVDGVEVHNAKTKPREEQYNSTYRVVSVLTVLHQDWLNGKEYKCKVSNKALPAPIEKTISKAKGQPREPQVYTLPPSRDELTKNQVSLTCLVKGFYPSDIAVEWESNGQPENNYKTTPPVLDSDGSFFLYSKLTVDKSRWQQGNVFSCSVMHEALDYHTTKKELSLSP light: not shown
54.9 nM | IgG1-F1368 (antibody, EU numbering; copies: 2 + 2) heavy: QVQLQESGPGLVKPSETLSLTCAVSGHSISHDHAWSWVRQPPGEGLEWIGFISYSGITNYNPSLQGRVTISRDNSKNTLYLQMNSLRAEDTAVYYCARSLARTTAMDYWGEGTLVTVSSASTKGPSVFPLAPSSKSTSGGTAALGCLVKDYFPEPVTVSWNSGALTSGVHTFPAVLQSSGLYSLSSVVTVPSSSLGTQTYICNVNHKPSNTKVDKKVEPKSCDKTHTCPPCPAPELRGGPKVFLFPPKPKDTLYITREPEVTCVVVDVSHEDPEVKFNWYVDGVEVHNAKTKPREEQYNSTYRVVSVLTVLHQDWLNGKEYKCKVSNKALPAPIEKTISKAKGQPREPQVYTLPPSRDELTKNQVSLTCLVKGFYPSDIAVEWESNGQPENNYKTTPPVLDSDGSFFLYSKLTVDKSRWQQGNVFSCSVMHEALHYHFTKKELSLSP light: not shown
82.7 nM | IgG1-F1377 (antibody, EU numbering; copies: 2 + 2) heavy: QVQLQESGPGLVKPSETLSLTCAVSGHSISHDHAWSWVRQPPGEGLEWIGFISYSGITNYNPSLQGRVTISRDNSKNTLYLQMNSLRAEDTAVYYCARSLARTTAMDYWGEGTLVTVSSASTKGPSVFPLAPSSKSTSGGTAALGCLVKDYFPEPVTVSWNSGALTSGVHTFPAVLQSSGLYSLSSVVTVPSSSLGTQTYICNVNHKPSNTKVDKKVEPKSCDKTHTCPPCPAPELRGGPKVFLFPPKPKDTLYISREPEVTCVVVDVSHEDPEVKFNWYVDGVEVHNAKTKPREEQYNSTYRVVSVLTVLHQDWLNGKEYKCKVSNKALPAPIEKTISKAKGQPREPQVYTLPPSRDELTKNQVSLTCLVKGFYPSDIAVEWESNGQPENNYKTTPPVLDSDGSFFLYSKLTVDKSRWQQGNVFSCSVMHEALHYHVTQKSLSLSP light: not shown
